This passage reports kd var/kd wt results from patent US20170342144A1 (Sanofi, published 2017).

Holding throughout (assay): Biacore off-rate vs wt GC1008, 50 nM
The target in one assay is T1, human TGFβ3 (human, UniProt P10600 301-412).
T1 sequence: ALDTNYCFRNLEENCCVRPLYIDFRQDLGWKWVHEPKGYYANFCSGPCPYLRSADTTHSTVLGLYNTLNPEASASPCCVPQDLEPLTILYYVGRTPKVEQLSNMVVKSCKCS
The gist of the method:
(§1)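 Surface plasmon resonance on a Biacore 3000 measured how fast purified antibody variants dissociated from TGFβ isoforms immobilized at about 100 RU. Variants carried single heavy- or light-chain substitutions and were produced by transient Expi293F transfection with Protein A cleanup. Samples at 50 nM were tested in duplicate, and each variant kd was divided by the wild-type control kd to give fold change.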

In the next assay the target is T2, human TGFβ2 (human, UniProt P61812 303-414).
T2 construct: also called TGFβ2 homodimer
T2 sequence: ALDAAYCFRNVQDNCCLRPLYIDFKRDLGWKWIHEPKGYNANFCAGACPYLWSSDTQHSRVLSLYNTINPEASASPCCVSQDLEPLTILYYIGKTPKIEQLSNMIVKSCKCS
A digest of the protocol: as §1

The target in another assay is T3, human TGFβ1 (human, UniProt P01137 279-390).
T3 construct: also called TGFβ1 homodimer
T3 sequence (P01137 279-390 limits assumed): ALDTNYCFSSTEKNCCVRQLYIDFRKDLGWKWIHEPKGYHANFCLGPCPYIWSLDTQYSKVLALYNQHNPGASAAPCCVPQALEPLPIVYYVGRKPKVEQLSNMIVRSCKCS
The gist of the method: as §1

B1: S31T (antibody, V domains shown)
VH: QVQLVQSGAEVKKPGSSVKVSCKASGYTFSTNVISWVRQAPGQGLEWMGGVIPIVDIANYAQRFKGRVTITADESTSTTYMELSSLRSEDTAVYYCASTLGLVLDAMDYWGQGTLVTVSS
VL: ETVLTQSPGTLSLSPGERATLSCRASQSLGSSYLAWYQQKPGQAPRLLIYGASSRAPGIPDRFSGSGSGTDFTLTISRLEPEDFAVYYCQQYADSPITFGQGTRLEIK
notes: GC1008 IgG4 variant
Regarding B1, the kd var/kd wt was found to be 1.5 in the assay with human TGFβ3, 1.2 with human TGFβ2 and 1.6 with human TGFβ1.

B2: Y27A (antibody, V domains shown)
VH: QVQLVQSGAEVKKPGSSVKVSCKASGATFSSNVISWVRQAPGQGLEWMGGVIPIVDIANYAQRFKGRVTITADESTSTTYMELSSLRSEDTAVYYCASTLGLVLDAMDYWGQGTLVTVSS
VL: ETVLTQSPGTLSLSPGERATLSCRASQSLGSSYLAWYQQKPGQAPRLLIYGASSRAPGIPDRFSGSGSGTDFTLTISRLEPEDFAVYYCQQYADSPITFGQGTRLEIK
notes: GC1008 IgG4 variant
Regarding B2, the kd var/kd wt with human TGFβ3 came out at 1.5; with human TGFβ2, 1.4; in the assay with human TGFβ1, 1.6.

B3: Y27E (antibody, V domains shown)
VH: QVQLVQSGAEVKKPGSSVKVSCKASGETFSSNVISWVRQAPGQGLEWMGGVIPIVDIANYAQRFKGRVTITADESTSTTYMELSSLRSEDTAVYYCASTLGLVLDAMDYWGQGTLVTVSS
VL: ETVLTQSPGTLSLSPGERATLSCRASQSLGSSYLAWYQQKPGQAPRLLIYGASSRAPGIPDRFSGSGSGTDFTLTISRLEPEDFAVYYCQQYADSPITFGQGTRLEIK
notes: GC1008 IgG4 variant
Take B3: the kd var/kd wt with human TGFβ3 worked out at 1.1; with human TGFβ2, 1.4; with human TGFβ1, 1.2.

B4: V55G (antibody, V domains shown)
VH: QVQLVQSGAEVKKPGSSVKVSCKASGYTFSSNVISWVRQAPGQGLEWMGGVIPIGDIANYAQRFKGRVTITADESTSTTYMELSSLRSEDTAVYYCASTLGLVLDAMDYWGQGTLVTVSS
VL: ETVLTQSPGTLSLSPGERATLSCRASQSLGSSYLAWYQQKPGQAPRLLIYGASSRAPGIPDRFSGSGSGTDFTLTISRLEPEDFAVYYCQQYADSPITFGQGTRLEIK
notes: GC1008 IgG4 variant
Regarding B4, the kd var/kd wt with human TGFβ3 is 1.9; with human TGFβ2, 1.9; with human TGFβ1, 1.8.

B5: Y27F (antibody, V domains shown)
VH: QVQLVQSGAEVKKPGSSVKVSCKASGFTFSSNVISWVRQAPGQGLEWMGGVIPIVDIANYAQRFKGRVTITADESTSTTYMELSSLRSEDTAVYYCASTLGLVLDAMDYWGQGTLVTVSS
VL: ETVLTQSPGTLSLSPGERATLSCRASQSLGSSYLAWYQQKPGQAPRLLIYGASSRAPGIPDRFSGSGSGTDFTLTISRLEPEDFAVYYCQQYADSPITFGQGTRLEIK
notes: GC1008 IgG4 variant
With B5, the kd var/kd wt in the assay with human TGFβ3 worked out at 1.1; with human TGFβ2, 1.2; with human TGFβ1 it was 1.3.

B6: Y27D (antibody, V domains shown)
VH: QVQLVQSGAEVKKPGSSVKVSCKASGDTFSSNVISWVRQAPGQGLEWMGGVIPIVDIANYAQRFKGRVTITADESTSTTYMELSSLRSEDTAVYYCASTLGLVLDAMDYWGQGTLVTVSS
VL: ETVLTQSPGTLSLSPGERATLSCRASQSLGSSYLAWYQQKPGQAPRLLIYGASSRAPGIPDRFSGSGSGTDFTLTISRLEPEDFAVYYCQQYADSPITFGQGTRLEIK
notes: GC1008 IgG4 variant
As to B6, the kd var/kd wt turned out to be 1.2 in the assay with human TGFβ3, 1.3 in the assay with human TGFβ2 and 1.2 with human TGFβ1.

B7: S31V (antibody, V domains shown)
VH: QVQLVQSGAEVKKPGSSVKVSCKASGYTFSVNVISWVRQAPGQGLEWMGGVIPIVDIANYAQRFKGRVTITADESTSTTYMELSSLRSEDTAVYYCASTLGLVLDAMDYWGQGTLVTVSS
VL: ETVLTQSPGTLSLSPGERATLSCRASQSLGSSYLAWYQQKPGQAPRLLIYGASSRAPGIPDRFSGSGSGTDFTLTISRLEPEDFAVYYCQQYADSPITFGQGTRLEIK
notes: GC1008 IgG4 variant
Consider B7, for which the kd var/kd wt amounted to 1.4 with human TGFβ3, 1 with human TGFβ2 and 1.4 in the assay with human TGFβ1.
